# Results: patent publication US20120093837A1 (CELL SIGNALING TECHNOLOGY INC A, published 2012)
# B1: EGFR L858R (43B2E11E5B2) rabbit monoclonal antibody (antibody, V domains shown)
# VH: QSVEESGGRLVTPGTPLTLTCTVSGFSLNTYGVSWVRQAPGKGLEWIGYIFTDGQTYYASWAKGRFTISKTSSTTVDLKITSPTTEDTATYFCASVDIWGPGTPVTVSS
# VL: AQVLTQTPSPVSAAVGSTVTIKCQSSPSVYSNYLSWYQQKSGQPPKQLIYDASHLASGVPSRFSGSGSGTQFTLTISGVQCDDAATYYCLGSYDCSSVDCHAFGGGTEVVVKG
# notes: Rabbit monoclonal from a hybridoma clone; also called L858R RmAb; L858R-specific antibody
# What was measured:
# [1] = target: T1, human EGFR with E746-A750 deletion (human, UniProt P00533 25-1210); assay: IHC on paraffin-embedded xenografts and cell pellets
# T1 construct: Endogenous mutant EGFR of HCC827 and H1650 cells and of NSCLC tumor samples; also called EGFR (E746-A750del); dEGFR
# Protocol: To test the specificity of binding of the rabbit monoclonal antibodies described in Example 1, xenografts were prepared of human cancer cells in nude mice.
# For […] analysis, all analyses were performed on formalin-fixed, paraffin-embedded blocks. Serial 4-um-thick tissue sections were cut from TMAs for immunohistochemistry study. The slides were baked at 55° C. overnight, then deparaffinized in xylene and rehydrated through a graded series of ethanol concentrations. Antigen retrieval (microwave boiling for 10 minutes in 1 mM EDTA) was performed. Intrinsic peroxidase activity was blocked by 3% hydrogen peroxide for 10 min. 5% goat serum (Sigma) solution was used for blocking nonspecific antibody binding, and the optimally diluted primary antibodies were applied to cover the specimen. Slides were incubated at 4° C. overnight. After three washes in TBS-T for 5 minutes each, slides were incubated for 30 min with labeled polymer-HRP anti-rabbit secondary antibody at room temperature. Following three additional washes in TBS-T, slides were visualized using substrate-chromagen (Envision™+kit, commercially available from Dako). Sections were scanned at low magnification. Intensity of the staining as well as percentage of positive cells was recorded. Stain intensity was scored from 0 to 3+, based on the, staining intensity and percentage of positive cells were recorded.
# [2] = target: phage-displayed peptide …; assay: phage display biopanning on plate-coated antibody, PhD 12 library, three rounds
binder,measurement,setting,value
B1,binding result,[1],no binding
same,Clone Frequency,[2],1 of 9 clones
